According to ChEMBL document CHEMBL1156055, “Synthetic substrate for application in both high and low throughput assays for botulinum neurotoxin B protease inhibitors” (Bioorg Med Chem Lett, 2009):

Substrate: COc1ccc2c(CC(=O)NCCCC[C@H](NC(=O)CNC(=O)[C@H](C)NC(=O)[C@H](CCC(N)=O)NC(=O)[C@H](CC(C)C)NC(=O)[C@H](C)NC(=O)[C@H](CC(=O)O)NC(=O)[C@H](C)NC(=O)[C@H](CCCNC(=N)N)NC(=O)[C@H](CC(=O)O)NC(=O)[C@H](CC(=O)O)NC(=O)[C@H](CC(C)C)NC(=O)[C@H](CCC(=O)O)NC(=O)[C@H](CO)NC(=O)[C@H](CC(C)C)NC(=O)[C@H](CCCCN)NC(=O)[C@H](CCC(N)=O)NC(=O)[C@H](CC(=O)O)NC(=O)[C@H](CCCNC(=N)N)NC(=O)[C@H](CCC(=O)O)NC(C)=O)C(=O)N[C@@H](CO)C(=O)N[C@@H](CCC(N)=O)C(=O)N[C@@H](CNc3ccc([N+](=O)[O-])cc3[N+](=O)[O-])C(=O)N[C@@H](CCC(=O)O)C(=O)N[C@@H](CO)C(=O)N[C@@H](CO)C(=O)N[C@@H](C)C(=O)N[C@@H](C)C(=O)N[C@@H](CCCCN)C(=O)N[C@@H](CC(C)C)C(=O)N[C@@H](CCCCN)C(=O)N[C@@H](CCCNC(=N)N)C(=O)N[C@@H](CCCCN)C(=O)N[C@@H](Cc3ccc(O)cc3)C(=O)N[C@@H](Cc3c[nH]c4ccccc34)C(=O)N[C@@H](Cc3c[nH]c4ccccc34)C(=O)N[C@@H](CCCCN)C(=O)N[C@@H](CC(N)=O)C(=O)N[C@@H](CC(C)C)C(=O)N[C@@H](CCCCN)C(N)=O)cc(=O)oc2c1
Assay: Activity at Clostridium botulinum BoNT/B protease

B1: Botulinum neurotoxin type B (Clostridium botulinum), P10844 (protein)
chain: MPVTINNFNYNDPIDNNNIIMMEPPFARGTGRYYKAFKITDRIWIIPERYTFGYKPEDFNKSSGIFNRDVCEYYDPDYLNTNDKKNIFLQTMIKLFNRIKSKPLGEKLLEMIINGIPYLGDRRVPLEEFNTNIASVTVNKLISNPGEVERKKGIFANLIIFGPGPVLNENETIDIGIQNHFASREGFGGIMQMKFCPEYVSVFNNVQENKGASIFNRRGYFSDPALILMHELIHVLHGLYGIKVDDLPIVPNEKKFFMQSTDAIQAEELYTFGGQDPSIITPSTDKSIYDKVLQNFRGIVDRLNKVLVCISDPNININIYKNKFKDKYKFVEDSEGKYSIDVESFDKLYKSLMFGFTETNIAENYKIKTRASYFSDSLPPVKIKNLLDNEIYTIEEGFNISDKDMEKEYRGQNKAINKQAYEEISKEHLAVYKIQMCKSVKAPGICIDVDNEDLFFIADKNSFSDDLSKNERIEYNTQSNYIENDFPINELILDTDLISKIELPSENTESLTDFNVDVPVYEKQPAIKKIFTDENTIFQYLYSQTFPLDIRDISLTSSFDDALLFSNKVYSFFSMDYIKTANKVVEAGLFAGWVKQIVNDFVIEANKSNTMDKIADISLIVPYIGLALNVGNETAKGNFENAFEIAGASILLEFIPELLIPVVGAFLLESYIDNKNKIIKTIDNALTKRNEKWSDMYGLIVAQWLSTVNTQFYTIKEGMYKALNYQAQALEEIIKYRYNIYSEKEKSNINIDFNDINSKLNEGINQAIDNINNFINGCSVSYLMKKMIPLAVEKLLDFDNTLKKNLLNYIDENKLYLIGSAEYEKSKVNKYLKTIMPFDLSIYTNDTILIEMFNKYNSEILNNIILNLRYKDNNLIDLSGYGAKVEVYDGVELNDKNQFKLTSSANSKIRVTQNQNIIFNSVFLDFSVSFWIRIPKYKNDGIQNYIHNEYTIINCMKNNSGWKISIRGNRIIWTLIDINGKTKSVFFEYNIREDISEYINRWFFVTITNNLNNAKIYINGKLESNTDIKDIREVIANGEIIFKLDGDIDRTQFIWMKYFSIFNTELSQSNIEERYKIQSYSEYLKDFWGNPLMYNKEYYMFNAGNKNSYIKLKKDSPVGEILTRSKYNQNSKYINYRDLYIGEKFIIRRKSNSQSINDDIVRKEDYIYLDFFNLNQEWRVYTYKYFKKEEEKLFLAPISDSDEFYNTIQIKEYDEQPTYSCQLLFKKDEESTDEIGLIGIHRFYESGIVFEEYKDYFCISKWYLKEVKRKPYNLKLGCNWQFIPKDEGWTE
  Km: 70.9 µM
  kcat: 3.81 s⁻¹
